From publication PMC2799554

Molecular target: Moraxella immunoglobulin (Ig) D binding protein (MID) of M. catarrhalis BBH18, on whole bacteria and on their outer membrane vesicles (OMV) (Moraxella catarrhalis)
Experiment: flow cytometry on cells

With “human IgD, soluble, from serum (natural protein)” the percent reduction of bacterial binding to B cells at 150 µg/ml IgD was 40%.
